According to a protein production outcome set (Wang et al. 2014):

Experiment: label from the status in PepcDB records

| Sequence | protein production |
| --- | --- |
| MKEDYFAEDPKFFNKKLRPKNLDEILKFLKEKFILNDEDKIILITSGGTKVPLEKIEIRNIDNFSTGKRGTLICEYFLKINKKVIFLHRKGSYIPFEYHLKDLAKMENLKVEENNIRFNLTKENERNILIDNLQNYKMYYNNLFLISYDTIFEYGFYLIEISNLLNELMINKYQNTFLLKNIYHKLKQEHNINNLLLYEIFYSTNNILNDMLLFFMSIQNKKCSEISKHQNTSYKLYYKLLLFLNLRFDVYSNNQFFINIQLFFKYIFSLLSNIIQMKEKYNIQQEEIQNIILYIQMLIKNFNSNVLQNNINEQEVIHNNININNIKEEQIIPNNIKNIHNNDNINHCDDNKINNPDNHLLNTDTYILHNNNPSCNDYNLNNLSFNINKYINEEKGKNKKTNQHISEQFLFPTHLVIMCAAASDFYIPYDEMHENKIDSNYSPLSIQLCLTPKFYKIINSHFPLLKYCIFKLEDEEKILIDKSNERIKYTDLLIANLLTQRYDYVYIFKKQFEYVLLKKSNSEQIENDICYEICKHFSIL | failed |
| MLLDYDFLLLLNDESGKPTRYYYLLQDFEKDFVAREVAQNKTKRFVKEIIGSEKASKTKNSAIEVSNTKASAMKNETIGSGDLKKVCEKIKSALPFGIISAFKPFKDAFYRDFNHNEQKLLIGAAKSGCIQSSADKLAQLKTRLLYWQDKSVKVDWDKPILIKDFFKGNNYLYRRFCFLLGKHFMDRFLKNNAKASVKDFMSSKEFVAKYRYTPKQNTERAKKLQSYLENKRDFIGFVQALNSLKDNPQDPFLPNEETSFLVFANEPTIVFNLRDYLLVLAQIFNQQAICYCESKCPIELINASPGKDFNKTQDSFPDIKFSTPNQLEQSLNALKNKLAAFFSKHPDKHNGMEFNEIAKTQIEALYMPQSSDGFDDFRKHLEESIKSFIRAKKNRYGFPKIFDVADIEQEERKVIEWREKERASKQSYKQNLQINKIANDLKRDKVVDKRTILSVIDADLDRGFIPPKDLLKQLEKISASLSKDIVIAIKQVEKLELSYALIDNIQHNTLDDTLDFTFIVGDSLSVQSLYVTFDLVIDMDRPMSEQFLNHIGELGSFESRERALEWVRLSQAKLIIETPREALKNAQLSQIEEILTGCIFNGAYRLQNDLKGNRHGNFK | failed |
| MKVKDVCKLISLKPTVVEEDTPIEEIVDRILEDPVTRTVYVARDNKLVGMIPVMHLLKVSGFHFFGFIPKEELIRSSMKRLIAKNASEIMLDPVYVHMDTPLEEALKLMIDNNIQEMPVVDEKGEIVGDLNSLEILLALWKGREK | not failed |
| MAVQLLENWLLKEQEKIQTKYRHLNHISVVEPNILFIGDSIVEYYPLQELFGTSKTIVNRGIRGYQTGLLLENLDAHLYGGAVDKIFLLIGTNDIGKDVPVNEALNNLEAIIQSVARDYPLTEIKLLSILPVNEREEYQQAVYIRSNEKIQNWNQAYQELASAYMQVEFVPVFDCLTDQAGQLKKEYTTDGLHLSIAGYQALSKSLKDYLY | not failed |
| MNGQAKTISASAKGIPQPSNNNFVDFTMSYNGTTKVMSITYGGQTWTQNVSSFIGTNQAMSFSIAASTGAQMNLQQLRNVNFTYTVAQGTVIANYVDEQGNTIAQQETTSGDIDTPYVTSQKTIPGYTFKASNGAATSGNYAANDQTVNYVYTRNQGSIDVTYIDQTTGQTLSKKDLSGGTGDSSNYTTTDTIKSYTDAGYELVSDNYPSGGTVFTDTAQHYVVNLKQKLVVSSEQKQVNETIQYVYEDGSKAADDYNAPPLNFTRSVTTNQVTGEKTYGDWQAQNGDSFGEVVSPTIKGETADQLKIDAISGITANSADIQKKVVYKRNQGTIDVTYIDETTGQVLTKKDLSGGTDDPSNYTTADDIKSYTDKGYELVSDDYPSGGTVFTDEPQHYVVKLKHGLTESTDKKAVNQVIHYVYEGGGEAATDHNATVDFSRTITTDRVTNDKTYGDWTADNGDSFASVTSPVIDGYTADQLKVSEMTGITADTEDISVTVTYTRNQGTIDITYIDQTTGQTLSKKDLSGGTGDDSGYTTADTIKSYTDKGYELISDDYPEDGTKFADDPQHYIVRLKHGLTEVTENKTVNQVIHYVYEGGGEAATDHNATVVFSQTITTDKVTGEKTYSDWTADNGDSFASVTSPVIDGYTADQLKVSEMTGITVDTEDISVTVTYTRNQGTIDVTYIDETTGKILTTKDLSGGTGDDSGYTTADTIKSYTDKGYELVSNDYPEDGTKFADDPQHYIVRLKHGTVVETENKSVNEVIHYVYDNGDKAADNYKATIVFSRTITTDKVTGEKTYSDWTADNGGRFAAVLSPIIKDYIASQLKVDEMTGITVDTADIERIVVYHKVPAGIIVPPVHPDKPSQPSNNQSKIPTAKAVKDSKPTDVLPSTGDSQKSQIVLTLLGIMAVIISPLALLLRRRKQ | failed |
| MTPLAEDFGAQGDAATRARWMALVEKTLKGQSFDDALTITTADGLTIQPLYTAEDGVAVARDLRARDTDRPWDLRMRAAHPDPIRAAKDVLTDLEGGAASVLLQIDPTGVNGVAIGSADDLGKALSGVLLDLAPVALDAGFLGPKAADWLGALAKAAPNAPLAFHLDPLTAFAQTGVSPGPIESHVFNAATVATRLSATYARASLFLATGRTAHEAGGSNVEELALMTAAALAYAKALVRSGLTIEEAFGRIALGVSLDGEYFTGVAKVRAAKALWARLTESCGVTVAPTIEARSSRRMLAKADAWTNLLRLTSAGFAGAVGGADAIVLDAFTDAIGLPTAFARRQARNTQLVLMEESHLGRVADPAGGAWYLDSLTDQLARAAWASFQAIEAAGGVIKALESGLVADAVAKSRTAQEAAYADKSRKILGVTVFPNADDKPPEVETPDSSAFAVQGPDVRLPGPDSHCPALTPVRFAAAFEGA | failed |
| MEERMEMISERPKESMYSWNKTAEKSDFEAVEALMSMSCSWKSDFKKYVENRPVTPVSDLSEEENLLPGTPDFHTIPAFCLTPPYSPSDFEPSQVSNLMAPAPSTVHFKSLSDTAKPHIAAPFKEEEKSPVSAPKLPKAQATSVIRHTADAQLCNHQTCPMKAASILNYQNNSFRRRTHLNVEAARKNIPCAAVSPNRSKCERNTVADVDEKASAALYDFSVPSSETVICRSQPAPVSPQQKSVLVSPPAVSAGGVPPMPVICQMVPLPANNPVVTTVVPSTPPSQPPAVCPPVVFMGTQVPKGAVMFVVPQPVVQSSKPPVVSPNGTRLSPIAPAPGFSPSAAKVTPQIDSSRIRSHICSHPGCGKTYFKSSHLKAHTRTHTGEKPFSCSWKGCERRFARSDELSRHRRTHTGEKKFACPMCDRRFMRSDHLTKHARRHLSAKKLPNWQMEVSKLNDIALPPTPAPTQ | not failed |
| MIYRFTIISDEVDDFVREIQIDPEATFFDLHEAILKAANYTNDQMTSFFICDDDWEKEKEITLEEMDNNPEMDSWIMKETRLNELIEDEKQKLLYVFDYMTERCFFIELSEIITGKEIKGAKCTKKSGEAPKQTVDFEEMAAGGGSLDLDENFYGDQDFDMEDFDAEGFDVNDGAAGGGSSYDEDKFLEHHHHHH | not failed |
| KIADWLELHPAEKRKPWCVGIPRLAELAWQRVVAQRDTFGEAQLAHRIRDYLPEQGQLFVGNSLVVRLIDALSQLPAGYPVYSNRGASGIDGLLSTAAGVQRASAKSTLAIVGDLSALYDLNALALLRQVSAPFVLIVVNNNGGQIFSLLPTPQSKRERFYLMPQNVHFDHAAAMFNLRYHRPENWEELESALAGAWRTPATTVIELVVNDTDGAQTLQQLLAQVSHL | failed |
| MGLNKEAVKIGFAYVGIVVGAGFSTGQEVMQFFSPYGLWSYIGVILSGLILGFIGRQVAKIGTAFDAQNHESTLDYLFGNKFSKIVDYLLIFFLFGISVTMLAGAGSTFEESFGVPTWLGALIMVIVIYITLLMDFNKIVRALGVVTPFLIILVVIIAAYYLFNGSISFGEVNDAVPDASLVKGILYGINYGGLAFAVGFSTIVAIGGDASRRRVSGAGALFGGIVYTILLALINFALQSEFTKIEDASIPMLTLANDIHPWIGLVLSIIMLAVMYNTILGLMYSFAARFTEPYSKKYHIFIVVMVIVAFALSFVGFAGLINFLYPIMGVVGLVVVIGVLVKYYSRKRQNKKFIA | failed |
| MSLSLYDSAHSLDGKSGWDTPVFSMKDSMDRNPMVTEAWEALCQSQVYFRGKPVGTIAAYDHASEEVLNYDQVFVRDFVPSALAFLMNGEPEIVKNFLLKTLHIQGQDKMIDKFKLGDGAMPASFKVLHNPIKKTDTIIADFGESAIGRVAPVDSGFWWIILLRAYTKSTGDHSLAERPECQKGMRLILSLCLSEGFDTFPTLLCADGCSMVDRRMGIYGYPIEIQALFFMALRSALSMLKHDSEGKEFMEKIVKRLHALSFHMRSYFWLDFQQLNDIYRYKTEEYSHTAVNKFNVIPDSIPDWIFDFMPLRGGYFVGNVSPARMDFRWFALGNCIAILSSLATPEQSMAIMDLIEARWEELVGEMPLKICYPAMESHEWGIVTGCDPKNTRWSYHNGGSWPVLLWLLTAASIKTGRPQIARRAIELAEARLLKDGWPEYYDGKSGRFIGKQARKSQTWSIAGYLVAKMMMDDPTHVGMISMEEEKHMKPPLRRSSSWT | failed |
| MSLNRFTKTSQGRSWNTGNGSPDAICFAVDKPGIVVVGFAVYGGGGIHEYELEVLVDDSEHAGDSTHSHRWTSLELVKGTYTTDDSPSDIAEIRLDKVVPLKENVKYAVRLRNYGSRTANGDGGMTTVQCPDGVTFTFSTCSLSSNGTNQTRGQIPQILYYRSEEGHHHHHH | not failed |
| SQFVLQDLQDATLGSLLSSLMQHCDPPQRKYPLEKGTPPPWWPTGNEEWWVKLGLPKSQSPPYRKPHDLKKMWKVGVLTAVINHMLPDIAKIKRHVRQSKCLQDKMTAKESAIWLAVLNQEESLIQQ | not failed |
| MKNVLYICIGALLAVLAFSSCNDGIDIRQDYDFSLSSWYLQKQIATGETVEIRFYLDREGDYEKAEYEIGYIQMEGKGEVSDCEGVKLVNREVKPLAEVPGLDTENPVKQVFTLFYRSTSARRSELKFFVRDNFGQEREMTVTFDTESGTTEE | failed |
| MNYILHLSILLVVAKLLEWLFEKKDIHPIIAHILTGIILGPFLLGIIYPNEELKVLSEFGLIMMMLYMGLTSNFSAIAQNKVKAIVVASLGVAFSFILGFTTVYLFGKGISAALFVGITLGNTAIEVTSGVIMKERIKREISSVLMGAAFADDIIAVYLIGILTGMIKGQTSLLSLAILTIKIVAFILSVLIFSEFVFKKSSLIYNLVIKDLNVFFTFTIILTFSLAVIAEGIGLNRIIGAYLAGLTISRLRERKDPLIISRIKLNELINELQVVLTEFFIPLFFIYVGLMFDPDTSEINLLLIALLYASAILGKLIGCGLGVKVFKGSWKDAVIVGIGMGGRGSLDLALLKFGLESGMIGEDLFATTVIVSMLTALSTPIFFRKTVKKLSEE | failed |
| SHPCFVQGRPELLSQIKRKQSARTVEDKQVNEQTQQNLEVVMAEMRAMREKAKNMEDKMNKLTKENRDMWTQMGSMRQQHARQQQYFKKLLHFLVSVMQPGLSKRVAKRGVLEIDFCAANGTAGPNSKRARMNSEEGPYKDVCDLLESLQRETQEPFSRRFTNNEGPLISEVTDEFGNSPVGRGSAQDLFGDTFGAQSSRYSDGGATSSREQSPHPIISQPQSNSAGAHGANEQKPDDMYMGSGPLTHENIHRGISALKRDYQGASPASGGPSTSSSAPSGAGAGARMAQKRAAPYKNATRQMAQPQQDYSGGFVNNYSGFMPSDPSMIPYQPSHQYLQPHQKLMAIEDQHHPTTSTSSTNADPHQNLYSPTLGLSPSFDRQLSQELQEYFTGTDTSLESFRDLVSNHNWDDFGNNVPLDDDEEGSEDPLRQLALENAPETSNYDGAEDLLFDNEQQYPENGFDVPDPNYLPLADEEIFPHSPALRTPSPSDPNLV | not failed |
